Reference: US20240261333A1, “NOVEL TARGETS FOR ENHANCING ANTI-TUMOR IMMUNITY” (THE BROAD INSTITUTE, INC., priority 2021, published 2024)

How the values were obtained:
DDX17 (human) = DDX17 (human) (UniProt Q92841); assay: co-IP with IgG control, lysate of N-FLAG B3GNT2 cells, mass spectrometry
PSMB5 (human) [1] = target: PSMB5 (human) (UniProt P28074); assay: as above
[2] = target: P0AA25.2 [thioredoxin: P0AA25]; assay: as above
PRRC2C (human) = PRRC2C (human) (UniProt Q9Y520); assay: as above
SRSF6 (human) = SRSF6 (human) (UniProt Q13247); assay: as above
Sequence of SRSF6 (human) (Q13247 whole entry): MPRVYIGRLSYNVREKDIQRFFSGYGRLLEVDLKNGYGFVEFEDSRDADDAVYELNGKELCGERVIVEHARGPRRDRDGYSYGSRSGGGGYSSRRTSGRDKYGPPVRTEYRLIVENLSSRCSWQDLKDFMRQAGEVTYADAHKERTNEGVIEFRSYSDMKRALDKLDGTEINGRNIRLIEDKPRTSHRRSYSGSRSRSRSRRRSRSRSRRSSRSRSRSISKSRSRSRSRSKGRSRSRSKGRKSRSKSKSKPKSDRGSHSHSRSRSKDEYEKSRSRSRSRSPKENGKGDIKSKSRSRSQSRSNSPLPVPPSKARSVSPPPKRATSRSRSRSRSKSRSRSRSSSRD

CPT1A (human) = CPT1A (human) (UniProt P50416); assay: as above
Sequence of CPT1A (human) (P50416 other isoform, or with tags, fused parts or gaps limits assumed): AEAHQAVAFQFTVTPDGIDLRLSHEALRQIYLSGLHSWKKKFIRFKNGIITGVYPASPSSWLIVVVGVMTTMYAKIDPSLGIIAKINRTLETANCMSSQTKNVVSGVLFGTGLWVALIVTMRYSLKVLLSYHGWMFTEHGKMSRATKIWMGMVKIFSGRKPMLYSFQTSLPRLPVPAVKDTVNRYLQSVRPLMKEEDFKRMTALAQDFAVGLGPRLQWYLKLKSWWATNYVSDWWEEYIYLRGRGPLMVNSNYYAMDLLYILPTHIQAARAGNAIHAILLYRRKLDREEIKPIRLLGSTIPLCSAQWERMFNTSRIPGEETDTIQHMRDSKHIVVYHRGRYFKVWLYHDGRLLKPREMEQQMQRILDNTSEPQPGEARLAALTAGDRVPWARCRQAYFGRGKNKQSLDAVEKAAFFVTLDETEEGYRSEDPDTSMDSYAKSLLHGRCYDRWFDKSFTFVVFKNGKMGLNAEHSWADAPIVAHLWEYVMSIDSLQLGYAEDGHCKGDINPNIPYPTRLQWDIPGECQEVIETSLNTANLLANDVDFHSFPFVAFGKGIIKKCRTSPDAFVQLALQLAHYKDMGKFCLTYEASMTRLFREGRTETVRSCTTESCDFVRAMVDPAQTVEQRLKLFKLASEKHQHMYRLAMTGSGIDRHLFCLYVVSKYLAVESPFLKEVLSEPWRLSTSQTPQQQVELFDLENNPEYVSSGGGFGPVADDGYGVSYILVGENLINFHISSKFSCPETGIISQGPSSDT

TTC13 (human) = TTC13 (human) (UniProt Q8NBP0); assay: as above
ARPC1B (human) = ARPC1B (human) (UniProt O15143); assay: as above
LUC7L3 (human) [3] = target: LUC7L3 (human) (UniProt O95232); assay: as above
XPO1 (human) [4] = target: XPO1 (human) (UniProt O14980); assay: as above
Sequence of XPO1 (human) (O14980 whole entry): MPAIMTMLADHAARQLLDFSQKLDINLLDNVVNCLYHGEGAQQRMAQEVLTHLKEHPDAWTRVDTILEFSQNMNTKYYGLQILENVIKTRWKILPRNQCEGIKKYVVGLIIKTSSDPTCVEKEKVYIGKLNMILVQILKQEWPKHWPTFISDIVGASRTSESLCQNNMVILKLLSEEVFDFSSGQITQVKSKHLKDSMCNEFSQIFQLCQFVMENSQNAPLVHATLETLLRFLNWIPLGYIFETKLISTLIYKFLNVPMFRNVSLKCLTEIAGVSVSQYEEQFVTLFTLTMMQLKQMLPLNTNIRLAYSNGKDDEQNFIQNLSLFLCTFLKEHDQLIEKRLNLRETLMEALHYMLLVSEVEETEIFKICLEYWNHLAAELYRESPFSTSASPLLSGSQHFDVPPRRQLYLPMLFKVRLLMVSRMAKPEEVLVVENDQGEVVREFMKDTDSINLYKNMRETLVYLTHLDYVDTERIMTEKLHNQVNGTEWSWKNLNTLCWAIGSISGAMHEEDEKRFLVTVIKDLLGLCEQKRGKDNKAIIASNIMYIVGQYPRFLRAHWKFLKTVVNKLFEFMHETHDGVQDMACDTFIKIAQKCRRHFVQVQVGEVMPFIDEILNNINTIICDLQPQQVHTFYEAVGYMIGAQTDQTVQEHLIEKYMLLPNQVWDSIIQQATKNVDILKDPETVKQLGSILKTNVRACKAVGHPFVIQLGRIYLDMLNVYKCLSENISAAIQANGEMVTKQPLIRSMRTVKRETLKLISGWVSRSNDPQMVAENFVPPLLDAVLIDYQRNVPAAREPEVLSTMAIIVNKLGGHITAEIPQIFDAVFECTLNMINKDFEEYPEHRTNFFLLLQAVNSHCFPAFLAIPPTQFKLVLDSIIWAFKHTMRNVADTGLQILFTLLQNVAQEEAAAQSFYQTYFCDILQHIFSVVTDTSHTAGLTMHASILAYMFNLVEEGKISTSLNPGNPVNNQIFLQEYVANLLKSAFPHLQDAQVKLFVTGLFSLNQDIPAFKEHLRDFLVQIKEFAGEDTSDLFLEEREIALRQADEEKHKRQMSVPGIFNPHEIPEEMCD

RUVBL2 (human) = RUVBL2 (human) (UniProt Q9Y230); assay: as above
COPA (human) [5] = target: COPA (human) (UniProt P53621); assay: as above
Sequence of COPA (human) (P53621 whole entry): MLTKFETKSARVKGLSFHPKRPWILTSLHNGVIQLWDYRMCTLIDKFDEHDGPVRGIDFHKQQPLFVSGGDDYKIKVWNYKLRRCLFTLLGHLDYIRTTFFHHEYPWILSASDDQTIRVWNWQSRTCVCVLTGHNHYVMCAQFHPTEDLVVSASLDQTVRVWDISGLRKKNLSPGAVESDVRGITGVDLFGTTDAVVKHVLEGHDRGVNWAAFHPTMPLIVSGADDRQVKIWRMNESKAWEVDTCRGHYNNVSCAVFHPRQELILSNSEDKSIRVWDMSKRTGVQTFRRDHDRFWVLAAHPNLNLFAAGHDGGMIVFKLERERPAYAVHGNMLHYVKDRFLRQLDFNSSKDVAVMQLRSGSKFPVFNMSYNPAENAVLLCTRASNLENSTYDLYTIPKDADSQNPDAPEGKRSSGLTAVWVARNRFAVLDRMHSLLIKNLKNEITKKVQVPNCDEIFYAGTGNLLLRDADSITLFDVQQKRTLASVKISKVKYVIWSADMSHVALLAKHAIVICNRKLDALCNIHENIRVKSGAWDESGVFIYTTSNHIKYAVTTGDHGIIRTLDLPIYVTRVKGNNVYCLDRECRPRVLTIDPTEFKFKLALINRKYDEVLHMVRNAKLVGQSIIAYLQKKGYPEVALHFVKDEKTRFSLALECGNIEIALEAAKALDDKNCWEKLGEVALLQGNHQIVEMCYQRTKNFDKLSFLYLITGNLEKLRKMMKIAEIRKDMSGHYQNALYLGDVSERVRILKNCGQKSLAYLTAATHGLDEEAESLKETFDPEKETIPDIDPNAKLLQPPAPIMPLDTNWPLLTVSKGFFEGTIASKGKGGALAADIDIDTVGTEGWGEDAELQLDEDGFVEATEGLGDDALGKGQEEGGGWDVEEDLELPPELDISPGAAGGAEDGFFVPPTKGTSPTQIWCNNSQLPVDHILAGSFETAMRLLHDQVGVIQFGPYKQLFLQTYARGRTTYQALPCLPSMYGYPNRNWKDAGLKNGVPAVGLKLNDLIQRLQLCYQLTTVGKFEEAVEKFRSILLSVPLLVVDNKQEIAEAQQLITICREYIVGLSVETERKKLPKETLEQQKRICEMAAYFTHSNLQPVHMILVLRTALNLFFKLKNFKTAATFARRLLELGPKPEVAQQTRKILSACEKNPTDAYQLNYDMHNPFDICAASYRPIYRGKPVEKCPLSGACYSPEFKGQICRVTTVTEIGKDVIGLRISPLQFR

HNRNPH1 (human) = HNRNPH1 (human) (UniProt P31943); assay: as above
RPL7A (human) = RPL7A (human) (UniProt P62424); assay: as above
DDX3X (human) = DDX3X (human) (UniProt O00571); assay: as above
PSMA3 (human) [6] = target: PSMA3 (human) (UniProt P25788); assay: as above
Sequence of PSMA3 (human) (P25788 2-255 limits assumed): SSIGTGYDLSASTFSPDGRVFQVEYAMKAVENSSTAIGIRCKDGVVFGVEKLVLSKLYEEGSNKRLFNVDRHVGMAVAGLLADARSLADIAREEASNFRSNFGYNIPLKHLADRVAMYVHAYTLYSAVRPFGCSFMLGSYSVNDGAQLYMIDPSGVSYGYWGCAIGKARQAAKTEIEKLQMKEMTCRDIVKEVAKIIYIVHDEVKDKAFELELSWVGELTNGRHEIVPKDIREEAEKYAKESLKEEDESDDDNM

CLTC (human) = CLTC (human) (UniProt Q00610); assay: as above
UniProt P01837.1 = assay: as above
HBB (human) [7] = target: HBB (human) (UniProt P68871); assay: as above
Sequence of HBB (human) (P68871 2-147 limits assumed): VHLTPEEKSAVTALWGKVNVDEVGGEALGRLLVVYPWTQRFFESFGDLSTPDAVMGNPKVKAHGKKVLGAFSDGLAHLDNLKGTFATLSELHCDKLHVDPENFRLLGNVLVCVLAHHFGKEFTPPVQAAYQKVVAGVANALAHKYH

RPS20 (human) = RPS20 (human) (UniProt P60866); assay: as above
PSMB5 (human) [8] = target: PSMB5 (human) (UniProt P28074); assay: co-IP with anti-FLAG, N-FLAG B3GNT2, mass spectrometry
MMP14 (human) = MMP14 (human) (UniProt P50281); assay: as above
XPOT (human) = XPOT (human) (UniProt O43592); assay: as above
[9] = target: P0AA25.2 [thioredoxin: P0AA25]; assay: as above
TELO2 (human) = TELO2 (human) (UniProt Q9Y4R8); assay: as above
LUC7L3 (human) [10] = target: LUC7L3 (human) (UniProt O95232); assay: as above
MAP4 (human) = MAP4 (human) (UniProt P27816); assay: as above
XPO1 (human) [11] = target: XPO1 (human) (UniProt O14980); assay: as above
RACK1 (human) = RACK1 (human) (UniProt P63244); assay: as above
DDX1 (human) = DDX1 (human) (UniProt Q92499); assay: as above
Sequence of DDX1 (human) (Q92499 whole entry): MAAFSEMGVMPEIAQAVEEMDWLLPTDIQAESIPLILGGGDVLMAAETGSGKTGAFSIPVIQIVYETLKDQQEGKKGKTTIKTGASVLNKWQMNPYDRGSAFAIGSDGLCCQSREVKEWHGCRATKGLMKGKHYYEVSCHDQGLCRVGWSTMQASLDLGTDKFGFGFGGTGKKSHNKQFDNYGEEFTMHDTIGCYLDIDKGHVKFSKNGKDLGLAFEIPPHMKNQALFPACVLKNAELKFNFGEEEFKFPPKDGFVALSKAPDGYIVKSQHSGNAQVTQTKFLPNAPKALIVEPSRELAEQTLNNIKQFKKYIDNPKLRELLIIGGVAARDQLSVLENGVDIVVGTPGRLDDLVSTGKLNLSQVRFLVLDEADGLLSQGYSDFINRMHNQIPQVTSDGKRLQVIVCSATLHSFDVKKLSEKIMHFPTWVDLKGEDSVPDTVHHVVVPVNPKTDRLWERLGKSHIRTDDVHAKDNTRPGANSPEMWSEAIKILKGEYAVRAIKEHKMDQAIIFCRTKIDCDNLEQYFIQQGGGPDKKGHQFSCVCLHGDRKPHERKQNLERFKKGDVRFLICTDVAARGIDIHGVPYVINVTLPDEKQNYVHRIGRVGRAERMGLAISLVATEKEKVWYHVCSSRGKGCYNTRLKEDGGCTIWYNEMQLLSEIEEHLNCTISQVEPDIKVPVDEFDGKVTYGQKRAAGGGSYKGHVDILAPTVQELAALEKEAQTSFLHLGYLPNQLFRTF

SYNPO (human) = SYNPO (human) (UniProt Q8N3V7); assay: as above
RPL17 (human) = RPL17 (human) (UniProt P18621); assay: as above
COPA (human) [12] = target: COPA (human) (UniProt P53621); assay: as above
KCTD5 (human) = KCTD5 (human) (UniProt Q9NXV2); assay: as above
PSMA3 (human) [13] = target: PSMA3 (human) (UniProt P25788); assay: as above
LCN1 (human) = LCN1 (human) (UniProt P31025); assay: as above
RPS27A (human) = RPS27A (human) (UniProt P62979); assay: as above
RPL7 (human) = RPL7 (human) (UniProt P18124); assay: as above
HBB (human) [14] = target: HBB (human) (UniProt P68871); assay: as above

Sequence of P0AA25.2 [thioredoxin: P0AA25] (P0AA25 2-109): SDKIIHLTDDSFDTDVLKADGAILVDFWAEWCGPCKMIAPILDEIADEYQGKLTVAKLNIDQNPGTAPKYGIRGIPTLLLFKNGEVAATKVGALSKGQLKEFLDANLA
Sequence of PSMB5 (human) (P28074 60-263 limits assumed): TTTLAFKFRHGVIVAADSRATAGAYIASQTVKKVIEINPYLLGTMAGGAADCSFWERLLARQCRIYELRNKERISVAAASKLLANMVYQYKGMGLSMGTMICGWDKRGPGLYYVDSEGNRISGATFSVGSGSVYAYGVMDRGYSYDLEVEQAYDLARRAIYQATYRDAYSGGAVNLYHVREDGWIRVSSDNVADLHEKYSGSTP

IgG control (Millipore Sigma 12-371) (antibody)
co-IP/MS count, N-term IgG (DDX17 (human)): 23
co-IP/MS count, N-term IgG (PSMB5 (human) [1]): 0
co-IP/MS count, N-term IgG [2]: 3
co-IP/MS count, N-term IgG (PRRC2C (human)): 11
co-IP/MS count, N-term IgG (SRSF6 (human)): 3
co-IP/MS count, N-term IgG (CPT1A (human)): 0
co-IP/MS count, N-term IgG (TTC13 (human)): 0
co-IP/MS count, N-term IgG (ARPC1B (human)): 2
co-IP/MS count, N-term IgG (LUC7L3 (human) [3]): 2
co-IP/MS count, N-term IgG (XPO1 (human) [4]): 0
co-IP/MS count, N-term IgG (RUVBL2 (human)): 0
co-IP/MS count, N-term IgG (COPA (human) [5]): 0
co-IP/MS count, N-term IgG (HNRNPH1 (human)): 11
co-IP/MS count, N-term IgG (RPL7A (human)): 4
co-IP/MS count, N-term IgG (DDX3X (human)): 19
co-IP/MS count, N-term IgG (PSMA3 (human) [6]): 0
co-IP/MS count, N-term IgG (CLTC (human)): 6
co-IP/MS count, N-term IgG (UniProt P01837.1): 87
co-IP/MS count, N-term IgG (HBB (human) [7]): 0
co-IP/MS count, N-term IgG (RPS20 (human)): 4

N-terminal FLAG tagged B3GNT2 (from UniProt Q9NY97 1-397) (enzyme)
co-IP/MS count, N-term FLAG (PSMB5 (human) [8]): 4
co-IP/MS count, N-term FLAG (MMP14 (human)): 2
co-IP/MS count, N-term FLAG (XPOT (human)): 2
co-IP/MS count, N-term FLAG [9]: 7
co-IP mass spectrometry count (TELO2 (human)): 2
co-IP/MS count, N-term FLAG (LUC7L3 (human) [10]): 4
co-IP mass spectrometry count (MAP4 (human)): 0
co-IP/MS count, N-term FLAG (XPO1 (human) [11]): 2
co-IP mass spectrometry count (RACK1 (human)): 2
co-IP mass spectrometry count (DDX1 (human)): 7
co-IP mass spectrometry count (SYNPO (human)): 4
co-IP/MS count, N-term FLAG (RPL17 (human)): 3
co-IP/MS count, N-term FLAG (COPA (human) [12]): 2
co-IP mass spectrometry count (KCTD5 (human)): 2
co-IP/MS count, N-term FLAG (PSMA3 (human) [13]): 4
co-IP mass spectrometry count (LCN1 (human)): 11
co-IP mass spectrometry count (RPS27A (human)): 8
co-IP mass spectrometry count (RPL7 (human)): 10
co-IP/MS count, N-term FLAG (HBB (human) [14]): 4
